Test results taken from paper PMC2173746.

Molecular target: LSm7 (UniProt Q9UK45)
Assay: two-hybrid

Chain of UniProt Q9UK45 (Q9UK45 whole entry): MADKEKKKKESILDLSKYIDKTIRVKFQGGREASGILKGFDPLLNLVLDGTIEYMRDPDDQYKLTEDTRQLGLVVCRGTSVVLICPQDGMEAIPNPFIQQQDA

fold reduction of the two-hybrid interaction against full-length SART3/p110: 2 fold
Substance: SART3/p110 with the CT10 domain deleted (from UniProt Q15020 1-950) (domain or fragment)
